{"source": "paper PMC6395711", "about": "“MdGSTF6, activated by MdMYB1, plays an essential role in anthocyanin accumulation in apple”", "biological_target": "T1, MdMYB1 (Malus domestica? (apple), UniProt A0SQ37 1-243)", "T1 sequence": "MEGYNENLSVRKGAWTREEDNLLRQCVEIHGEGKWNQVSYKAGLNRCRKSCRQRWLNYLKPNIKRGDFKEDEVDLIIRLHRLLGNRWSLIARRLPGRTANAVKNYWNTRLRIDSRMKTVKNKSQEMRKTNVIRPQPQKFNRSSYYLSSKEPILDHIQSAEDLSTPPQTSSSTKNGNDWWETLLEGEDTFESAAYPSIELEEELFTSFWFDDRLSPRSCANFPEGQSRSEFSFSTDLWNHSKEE", "assay": "EMSA; LightShift Chemiluminescent EMSA Kit (Thermo); buffer, salt, pH and temperature not stated", "details": "protein: recombinant; tags: pET-32a fusion, His (Ni-agarose purified); blunt", "data": [{"binder": "MdGSTF6-probe (dsDNA) DNA 1: ATATCTAGTTGTAATCAACTGTTATGGCATAAATTG DNA 2: CAATTTATGCCATAACAGTTGATTACAACTAGATAT", "values": [{"measurement": "binding result", "value": "binds"}]}]}
